Data on one molecule can be found in publication PMC11952830 (2025).

The target in this assay is actin (rabbit muscle) (rabbit, UniProt P68135 1-377). The assay can be described thus: FP; actin filaments.

No end group written: not given here. TMR = tetramethylrhodamine

On to {TMR}-MPAKTPIYLKAANNKKGKKFK (domain or fragment) [Cdc42EP3 (1-21), TMR labeled at the N-terminus], for which the Kd was determined as 18.9 µM.
